Consider 16 molecules from patent US12600782 (BIOTHEUS, dated 2026).

The target of assay [1] is T1, human PD-L2 protein (purchased from AcroBiosystems) (human, UniProt Q9BQ51 20-219, limits assumed, biotinylated in the blocking assays).
T1 construct: Bought soluble protein; also called PD-L2 antigen; biotinylated human PD-L2 protein
T1 sequence (looked up): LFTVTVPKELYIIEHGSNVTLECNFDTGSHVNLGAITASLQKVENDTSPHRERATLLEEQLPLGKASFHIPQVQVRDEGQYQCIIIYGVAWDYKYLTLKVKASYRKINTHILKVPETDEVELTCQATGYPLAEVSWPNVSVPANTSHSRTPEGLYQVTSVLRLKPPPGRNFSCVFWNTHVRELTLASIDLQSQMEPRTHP
Description: BLI (ForteBio), antibody on AHQ sensor, 100 nM PD-L2 antigen, 1:1 model. As to the method:
(§1) ForteBio affinity determination was carried out according to existing methods (Estep, P et al., High throughput solution-based measurement of antibody-antigen affinity and epitope binning. MAbs, 2013.5(2): p. 270-8). In short, the sensor was equilibrated for 30 min under the line of the analysis buffer, and then the baseline was established after online detection for 60 s. The purified antibody obtained as described above was loaded onto the AhQ sensor online. […] Kinetic analysis was performed using a 1:1 binding model.

For assay [2], the target named is T2, human PD-L1 protein (purchased from AcroBiosystems) (human, UniProt Q9NZQ7 19-238, biotinylated in the blocking assay).
T2 construct: Bought soluble protein; also called PD-L1 antigen; biotinylated human PD-L1 protein
The assay is described as follows: BLI (ForteBio), antibody on AHQ sensor, 100 nM PD-L1 antigen, 1:1 model. The procedure:
as §1
For orientation: Biolayer interferometry detects binding as a change in optical thickness at a sensor tip.

Assay [3] concerns the target T3, human PD-L2 on CHO cells (CHO-hPD-L2 cells) (human, UniProt Q9BQ51 20-273).
T3 construct: whole, on cells; also called CHO-K1-PD-L1/PD-L2
T3 sequence (looked up): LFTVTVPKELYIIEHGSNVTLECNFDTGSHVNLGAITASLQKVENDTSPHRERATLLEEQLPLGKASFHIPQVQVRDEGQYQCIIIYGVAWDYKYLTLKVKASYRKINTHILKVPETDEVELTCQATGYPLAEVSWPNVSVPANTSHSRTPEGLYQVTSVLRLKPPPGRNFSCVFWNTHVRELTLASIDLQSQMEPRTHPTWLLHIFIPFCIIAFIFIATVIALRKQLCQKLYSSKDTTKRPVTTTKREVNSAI
The assay is described as follows: flow cytometry on CHO-hPD-L2 cells, PE anti-human IgG-Fc, median fluorescence intensity (MFI). As to the method: The expanded CHO-hPD-L2 cells were adjusted to a cell density of 2×10⁶ cells/ml, and were added to 96-well flow plate at 100 μl/well, and centrifuged for later use. […] The diluted samples were added to the 96-well flow plate with cells at 100 μl/well, incubated at 4° C. for 30 min, and washed twice with PBS. Goat F(ab')2 anti-human IgG-Fc (PE) (purchased from Abcam) diluted 100 times with PBS was added at 100 μl/well, incubated at 4° C. for 30 min, and washed twice with PBS. PBS was added at 100 μl/well to resuspend cells, and detection was performed on a CytoFlex (Bechman) flow cytometer and the corresponding MFI was calculated.
On the technique in general: Flow cytometry measures light scatter and fluorescence of single cells or particles in a stream.

The target of assay [4] is T1, human PD-L2 protein (purchased from …). The assay is described as follows: flow cytometry blocking assay: antibody pre-incubated with biotinylated human PD-L2 protein (1 ug/ml), binding of PD-L2 to CHO-hPD-1 cells read as MFI. As to the method: CHO cells overexpressing human PD-1 (CHO-hPD-1 cells) were generated by transfection of the pCHO1.0 vector (purchased from Invitrogen™) cloning human PD-1 cDNA (purchased from Sino Biological). The expanded CHO-hPD-1 cells were adjusted to a cell density of 2×10⁶ cells/ml, and were added to 96-well flow plate at 100 μl/well, and centrifuged for later use. The purified mutant sample was diluted with PBS and diluted 3 times from […] for 12 points. […] The co-incubation sample was added to the above-mentioned 96-well flow plate with cells 100 μl/well, incubated at 4° C. for 30 min, and washed twice with PBS. APC goat anti-mouse IgG (minimum×reactive) antibody diluted 100 times with PBS (purchased from Biolegend®) was added at 100 μl/well, incubated at 4° C. for 30 min, and washed twice with PBS. PBS was added at 100 μl/well to resuspend cells, and detection was performed on a CytoFlex (Bechman) flow cytometer and the corresponding MFI was calculated.

For assay [5] the target is unchanged. Description: BLI (ForteBio), antibody on AHQ sensor, 100 nM PD-L2 antigen, 1:1 model. As to the method: as §1
The experimental method was the same as that in Example 1.5.
The source holds these as a separate data set.

Numbering of substitutions follows the chain as printed. Like-named read-outs stand apart in the source and are kept apart here.

T2 sequence (Q9NZQ7 19-238 limits assumed): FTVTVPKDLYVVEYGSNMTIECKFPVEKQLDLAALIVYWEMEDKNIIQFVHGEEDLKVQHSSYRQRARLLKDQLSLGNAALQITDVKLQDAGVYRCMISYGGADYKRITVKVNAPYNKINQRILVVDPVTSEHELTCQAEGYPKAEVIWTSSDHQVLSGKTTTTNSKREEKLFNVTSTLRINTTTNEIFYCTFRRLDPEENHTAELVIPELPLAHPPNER

B1: D-Na-80 (antibody, V domains shown)
VH: EVQLVESGGGLVQAGGSLRLSCAVSGVSFINYAMGWFRQAPGKEREFVAAISRFGGTTSYADSVKDRFSITTDTKDTVYLQTNSLKPEDTAVYYCAANSRILSRTAKDYDYWGQGTQVTVSS
notes: Anti-PD-L2 heavy chain antibody: VHH linked to human IgG1 (LALA) Fc; the junction is not described
The Kd is the equilibrium constant for the complex coming apart. A higher Kd goes with lower affinity. By koff is commonly meant the first-order rate constant of dissociation. Read a low koff as slow dissociation. As a reminder, the kon is the second-order rate constant of association. A lower kon goes with slow association. Turning to B1, in assay [1], the Kd stood at 3.4 nM, the koff was determined as 0.000433 s⁻¹ and the kon is 127000 M⁻¹ s⁻¹.

B2: K-Yr-13&14-16 (antibody, V domains shown)
VH: EVQLVESGGGLVQAGGSLRLSCAASTRTFITYAMGWFRQAPGKEREFVASINWSGASTYYADSVKGRFTISRHNAKNTVYLQMNSLKPEDTAVYYCAAALSAVVVTQILDYDYWGQGTLVTVSS
notes: Anti-PD-L1 heavy chain antibody: VHH linked to human IgG1 (LALA) Fc; the junction is not described
In assay [2], B2 returned a Kd of 11 nM, a koff of 0.00606 s⁻¹ and a kon of 553000 M⁻¹ s⁻¹.

B3: K-Yr-13&14-09 (antibody, V domains shown)
VH: QVQLVESGGGLVKAGDSLRLSCAASGRTFTIYAIGWFRQAPGKEREFVATINWSGSMTNYTDSVKGRFTISRDNAKNTVYLQMNSLKPDDTAIYYCAAYVGATISTAHSRYDYWGQGTLVTVSA
notes: as for B2
B3: in assay [2], binding was put at a Kd of 2.56 nM, the koff came to 0.00137 s⁻¹ and the kon came out at 535000 M⁻¹ s⁻¹.

B4: D-Ye-22 (antibody, V domains shown)
VH: QVQLQESGGGLVQAGDSLRLSCIGSRRTFTMAWFRQAPGKEREFVAGIWGPADHTIYANSVKGRFACSRDDSTNTIFLQMNSLELEDTALYLCAAADSSGDDFEYWGQGTQVTVSS
notes: as for B1
By EC50 (read off the curve) is commonly meant the concentration needed to bring the measured effect to its halfway point. Read a low EC50 (read off the curve) as greater potency. Regarding B4, the “EC50 (read off the curve)” value in assay [3] was around 20 nM. Besides, in assay [1], the affinity, expressed as Kd, was 4.51 nM; the koff was 0.000825 s⁻¹; the kon was 183000 M⁻¹ s⁻¹. Besides, in assay [4], the “IC50 (read off the curve)” value was around 2 nM.

B5: D-Ye-31 (antibody, V domains shown)
VH: QVQLQESGGGLVQAGGSLGLSCAASGRTFSSMTIGWFRQTPGKEREFVAGIGWSTSKTVYKDSVKGRFTISTDNAKKTVYLQMNNLKPEDTAVYYCAADSMNRGQFDYWGQGTQVTVSS
notes: as for B1
In assay [1], B5 returned a dissociation constant (Kd) of 5.04 nM, a koff of 0.000644 s⁻¹ and a kon of 128000 M⁻¹ s⁻¹.

B6: D-Ye-10 (antibody, V domains shown)
VH: B5 VH with G16A, G19R, A24S, A98E
notes: as for B1
Regarding B6, the “EC50 (read off the curve)” value in assay [3] is around 50 nM. In assay [1], the Kd worked out at 5.22 nM, the koff was determined as 0.00106 s⁻¹ and the kon is 203000 M⁻¹ s⁻¹. Also, the “IC50 (read off the curve)” value in assay [4] was around 4 nM.

B7: D-Na-64 (antibody, V domains shown)
VH: B5 VH with Q1E, Q5V, A14P, G19R
notes: as for B1
For the molecule B7, in assay [3], the “EC50 (read off the curve)” value was around 60 nM. In assay [1], this molecule yielded a Kd of 0.566 nM, a koff of 0.000369 s⁻¹ and a kon of 652000 M⁻¹ s⁻¹. Further, the “IC50 (read off the curve)” value in assay [4] is around 10 nM.

B8: D-Na-67 (antibody, V domains shown)
VH: QVQLVESGGGLVQAGGSLRLSCAASGGLTFINYAMGWFRQAPGKEREFVAAISRFGGTTSYADSVKDRFSITRDVAKDTVYLQTNSLKPEDTAVYYCAANSRILSRTAADYDYWGQGTQVTVSS
notes: as for B1
As to B8, in assay [1], the Kd stood at 3.58 nM, the koff amounted to 0.000334 s⁻¹ and the kon turned out to be 93300 M⁻¹ s⁻¹.

B9: D-Ye-32 (antibody, V domains shown)
VH: QVQLQESGGGLVQAGGSLRLSCAASGSVGSINAMAWFRQAPGKQRDVVAHMPSGGSTHYADSVKGRFTVSRDNAKNTVYLQMNSLKAEDTAVYYCWAAGLGWGQGTQVTVSS
notes: as for B1
Regarding B9, the “EC50 (read off the curve)” value in assay [3] was around 70 nM. In assay [1], the dissociation constant (Kd) worked out at 5.69 nM, the koff was 0.00146 s⁻¹ and the kon was 256000 M⁻¹ s⁻¹.

B10: D-Ye-29 (antibody, V domains shown)
VH: QVQLQESGGGLVQPGGSLRLSCAASGSEFSFIPTGWYRQTPGKQRDLVAVFTSGGLTNYADSVKGRFTISRNNTKNIVYLQMNSLKPEDTAVYYCSGVPGPHYNGPTSGINYWGQGTQVTVSS
notes: as for B1
In assay [1], B10 gave a Kd of 1.93 nM, a koff of 0.000376 s⁻¹ and a kon of 195000 M⁻¹ s⁻¹. In assay [5], the Kd was found to be 1.93 nM, the koff came out at 0.000376 s⁻¹ and the kon came out at 195000 M⁻¹ s⁻¹.

B11: HZ-D-Ye-29-3 (antibody, V domains shown)
VH: B10 VH with Q1E, Q5L, T40A, D46E, N72D, T74S, I77T, K86R, P87A
notes: Humanized anti-PD-L2 heavy chain antibody: VHH linked to human IgG1 (LALA) Fc; the junction is not described
Take B11: in assay [5], binding was characterised by a dissociation constant (Kd) of 4.49 nM, the koff was 0.00173 s⁻¹ and the kon was found to be 386000 M⁻¹ s⁻¹.

B12: D-Na-87 (antibody, V domains shown)
VH: QVQLVESGGGLVQPGGSLRLSCAASGFAFDAYAMTWVRQAPGKGLEFLSRIYSHGSKIIYAGSVKGRFTIFRDNAKNTVYLQMNSLKPEDTAVYYCAAGPDNIPTTGEKYDFWGQGTQVTVSS
notes: as for B1
As to B12, in assay [1], the Kd was 0.655 nM, the koff worked out at 0.000288 s⁻¹ and the kon stood at 440000 M⁻¹ s⁻¹. Besides, the “IC50 (read off the curve)” value in assay [4] is around 30 nM.

B13: D-Na-58 (antibody, V domains shown)
VH: QVQLVESGGGLVQAGGSLTLSCTASGRTFSSYAMAWFRQAPGKERELLVTISRSGSTTYYLDSVKGRFTISRDNAKNTVYLQMNSLKPEDTAVYYCAAKRSLQDEVYYWGQGTQVTVSS
notes: as for B1
Consider B13, for which the “EC50 (read off the curve)” value in assay [3] is around 50 nM. In assay [1], this molecule registered a dissociation constant Kd of 0.486 nM, a koff of 0.000325 s⁻¹ and a kon of 668000 M⁻¹ s⁻¹. Moreover, in assay [4], the “IC50 (read off the curve)” value was around 9 nM.

B14: D-Na-78 (antibody, V domains shown)
VH: QVQLVESGGGLVQAGGSLRLSCEASGVISINYAMAWFRQAPGKEREFVAAISRFGVTTSYADSVKDRFSIGITRDNAKDTMYLQTKSLKPEDTAVYYCAANSRILSRTAKDYDYWGQGTQVTVSS
notes: as for B1
As for B14, in assay [1], binding was put at a Kd of 5.95 nM, the koff worked out at 0.000345 s⁻¹ and the kon turned out to be 58100 M⁻¹ s⁻¹.

B15: D-Na-89 (antibody, V domains shown)
VH: QVQLVESGGGLVQAGGSLRLSCAASGLTFINYAMGWFRQAPGKEREFVAAISWAGGTTSYADSVKDRFSITRDSAKDTVYLQTNSLKPEDTAVYYCAANSRILSRTAKDYDYWGQGTEVTVSS
notes: as for B1
As for B15, in assay [1], the affinity, expressed as Kd, was 3.31 nM; the koff is 0.00112 s⁻¹; the kon amounted to 339000 M⁻¹ s⁻¹. In addition, in assay [4], the “IC50 (read off the curve)” value is around 30 nM.

B16: D-Na-90 (antibody, V domains shown)
VH: B15 VH with E118Q
notes: as for B1
Turning to B16, in assay [1], the Kd stood at 3.79 nM, the koff was determined as 0.00176 s⁻¹ and the kon came out at 463000 M⁻¹ s⁻¹.
